Measured values as given in IntAct's records for PubMed 25814554.

B1: Tetraspanin-2 (Homo sapiens), O60636 (parent)
chain: MGRFRGGLRCIKYLLLGFNLLFWLAGSAVIAFGLWFRFGGAIKELSSEDKSPEYFYVGLYVLVGAGALMMAVGFFGCCGAMRESQCVLGSFFTCLLVIFAAEVTTGVFAFIGKGVAIRHVQTMYEEAYNDYLKDRGKGNGTLITFHSTFQCCGKESSEQVQPTCPKELLGHKNCIDEIETIISVKLQLIGIVGIGIAGLTIFGMIFSMVLCCAIRNSRDVI
B2: Pleckstrin homology domain-containing family S member 1 (Homo sapiens), Q5SXH7-1 (parent)
chain: MAGGKQFTFSYENEVCKQDYFIKSPPSQLFSSVTSWKKRFFILSKAGEKSFSLSYYKDHHHRGSIEIDQNSSVEVGISSQEKMQSVQKMFKCHPDEVMSIRTTNREYFLIGHDREKIKDWVSFMSSFRQDIKATQQNTEEELSLGNKRTLFYSSPLLGPSSTSEAVGSSSPRNGLQDKHLMEQSSPGFRQTHLQDLSEATQDVKEENHYLTPRSVLLELDNIIASSDSGESIETDGPDQVSGRIECHYEPMESYFFKETSHESVDSSKEEPQTLPETQDGDLHLQEQGSGIDWCLSPADVEAQTTNDQKGSASLTVVQLSILINNIPDESQVEKLNVFLSPPDVINYLALTEATGRICVSQWEGPPRLGCIFCHGDHLLAVNDLKPQSLEEVSLFLTRSIQKEKLKLTIGRIPNSETFHAASCMCPSKCQSAAPSQLDKPRLNRAPKRSPAIKKSQQKGARE

Variants of: B1
Conditions: with grb2_human GRB2, P62993
Chain of grb2_human GRB2, P62993 (P62993 whole entry, looked up): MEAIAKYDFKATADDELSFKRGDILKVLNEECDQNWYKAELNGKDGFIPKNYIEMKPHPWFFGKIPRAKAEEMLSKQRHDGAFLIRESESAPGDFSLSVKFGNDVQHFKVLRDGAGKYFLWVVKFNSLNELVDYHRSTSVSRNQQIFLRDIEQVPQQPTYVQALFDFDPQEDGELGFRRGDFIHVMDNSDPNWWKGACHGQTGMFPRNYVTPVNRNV

Row | Variant | effect of a mutation on the interaction
1 | Y124F | disrupting interaction

Variants of: B1
Conditions: with p55g_human PIK3R3, Q92569

Row | Variant | effect of a mutation on the interaction
2 | Y124F | disrupting interaction

Variants of: B2
Conditions: with p55g_human PIK3R3, Q92569

Row | Variant | effect of a mutation on the interaction
3 | D68F | disrupting interaction
